In PMC10553838, “Functional and structural insights into the multi-step activation and catalytic mechanism of bacterial ExoY nucleotidyl cyclase toxins bound to actin-profilin” (PLOS Pathogens, 2023):
pKd: −log10 of the molar value.

Assays:
[1] = biological target: Alexa-488-labelled G-actin-ATP (rabbit) (UniProt P68135); assay: AUC
[2] = biological target: α-actin from rabbit skeletal muscle, monomeric (G-actin) (rabbit) (UniProt P68135); assay: pyrene-actin seeded elongation rates with profilin, fitted with G-actin sequestration by Vn-ExoY
[3] = biological target: α-actin from rabbit skeletal muscle, monomeric (G-actin) (rabbit) (UniProt P68135); assay: pyrene-actin seeded elongation rates fitted to a G-actin sequestration model; initial barbed-end (spectrin-actin seeds) and pointed-end (gelsolin-actin seeds) growth rates, 1.5 μM G-actin-ATP-Mg, increasing Vn-ExoY^DM; 28 mM KCl, 2 mM MgCl2, 10 mM Tris-HCl pH 7.5, 2 mM ATP, 1 mM DTT; 25°C; KD from the fit of Eq 1 and 2

Trx-Vn-ExoY (Vn-ExoY fused to Thioredoxin) (domain or fragment)
pKd [1]: 4.93
stoichiometry N [1]: 1

Vn-ExoY^3412-3873 (wild type) (domain or fragment)
pKd [2]: 4.85 to 4.92

Vn-ExoY^DM (Vn-ExoY^412-873 K528M/K535I, inactive double mutant) (domain or fragment)
pKd [3]: 4.68
stoichiometry N [3]: 1
